Assay results: patent EP3240566B1 (Development Center for Biotechnology, dated 2020)

Key:
human ENO1 protein [1] = biological target: T1, human ENO1 protein (human, UniProt P06733 1-434); test: SPR, BIAcore 2000, ENO1 injected, 25 degree C, 1:1 Langmuir
T1 construct: also called ENOl; alpha-enolase

human ENO1 protein [2] = biological target: T1, human ENO1 protein; test: ENO1 binding ELISA

T1 sequence (P06733 whole entry): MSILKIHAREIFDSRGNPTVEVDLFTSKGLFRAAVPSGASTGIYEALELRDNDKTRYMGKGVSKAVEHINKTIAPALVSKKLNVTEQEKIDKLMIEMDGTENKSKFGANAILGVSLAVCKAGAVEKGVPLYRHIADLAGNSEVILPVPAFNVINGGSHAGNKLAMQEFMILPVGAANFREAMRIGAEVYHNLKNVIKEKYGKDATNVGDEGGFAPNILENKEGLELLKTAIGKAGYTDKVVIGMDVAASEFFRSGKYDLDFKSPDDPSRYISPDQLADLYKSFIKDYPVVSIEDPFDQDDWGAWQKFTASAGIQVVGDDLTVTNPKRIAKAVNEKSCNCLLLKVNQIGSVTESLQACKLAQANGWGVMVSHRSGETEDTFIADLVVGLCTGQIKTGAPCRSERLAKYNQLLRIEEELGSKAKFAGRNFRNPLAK

| Binder | Kd (human ENO1 protein [1]) [nM] | Kd (human ENO1 protein [2]) [nM] |
| --- | --- | --- |
| hum EN10 mAb IMGT (antibody, IgG1, V domains shown, also called humanized EN10 mAb IMGT; Hum EN10 IMGT) VH: QVQLVQSGAEVKKPGASVKVSCKASGYTFTSCVMNWVRQAPGQGLEWMGYINPYNDGTKYNEKFKGRVTMTTDTSTSTAYMELRSLRSDDTAVYYCAREGFYYGNFDNWGQGTLVTVSS VL: DIQMTQSPSSLSASVGDRVTITCRASENIYSYLTWYQQKPGKAPKLLIYNAKTLPEGVPSRFSGSGSGTDFTLTISSLQPEDFATYYCQHHYGTPYTFGQGTKLEIKR | 0.219 | 0.0365 |
| hum EN10 mAb 4D5 (antibody, IgG1, V domains shown, also called humanized EN10 mAb 4D5; hum ENO10mAb 4D5) VH: EVQLVESGGGLVQPGGSLRLSCAASGYTFTSCVMNWVRQAPGKGLEWVAYINPYNDGTKYNEKFKGRFTISRDDSKNTLYLQMNSLRAEDTAVYYCAREGFYYGNFDNWGQGTLVTVSS VL: DIQMTQSPSSLSASVGDRVTITCRASENIYSYLTWYQQKPGKAPKLLIYNAKTLPEGVPSRFSGSGSGTDFTLTISSLQPEDFATYYCQHHYGTPYTFGQGTKLEIKR | 0.5 |  |
